From patent US20140255408A1 (Janssen / Centocor, published 2014) come the findings set out here.

In test [1] the target is T1, human EGFR on cells (human, UniProt P00533 25-1210).
T1 construct: Wild type EGFR on A431, NCI-H292, NCI-H322, NCI-H441 and SNU-5 cells; in U-2 OS cells a beta-galactosidase fragment was fused to its C-terminus; also called epidermal growth factor receptor; HER1
The test can be described thus: A431 cell binding assay, anti-penta-His-Alexa488 detection.

The target in test [2] is T1, human EGFR on cells. The test can be described thus: A431 cell EGF competition assay, competitor biotinylated EGF.
For test [3], the target named is T2, recombinant human extracellular domain of EGFR fused to an IgG1 Fc (human, UniProt P00533 25-645).
T2 construct: Bought from R&D Systems; The residues are stated for the panning reagent; also called EGFR-Fc; EGF R-Fc; not shown: IgG1 Fc
Nature of the test: SPR (ProteOn), EGFR-Fc captured on anti-human Fc IgG, FN3 domain as analyte. As to the method: Select EGFR-binding FN3 domains were screened to identify those with slow off-rates (koff) in binding to EGFR-Fc on a ProteOn XPR-36 instrument (Bio-Rad) to facilitate selection of high affinity binders. Goat anti-human Fc IgG (R&D systems), at a concentration of 5 μg/mL, was directly immobilized via amine coupling (at pH 5.0) on all 6 ligand channels in horizontal orientation on the chip with a flow rate of 30 μL/min in PBS containing 0.005% Tween-20. The immobilization densities averaged about 1500 Response Units (RU) with less than 5% variation among different channels. EGFR-Fc was captured on the anti-human Fc IgG surface to a density around 600 RU in vertical ligand orientation. All tested FN3 domains were normalized to a concentration of […] and tested for their binding in horizontal orientation. All 6 analyte channels were used for the FN3 domains to maximize screening throughput. The dissociation phase was monitored for 10 minutes at a flow rate of 100 μL/min. The inter-spot binding signals were used as references to monitor non-specific binding between analytes and the immobilized IgG surface, and were subtracted from all binding responses. The processed binding data were locally fit to a 1:1 simple Langmuir binding model to extract the koff for each FN3 domain binding to captured EGFR-Fc.
Binding affinity of selected EGFR-binding FN3 domains to recombinant EGFR extracellular domain was further characterized by surface Plasmon resonance methods using a Proteon Instrument (BioRad). The assay set-up (chip preparation, EGFR-Fc capture) was similar to that described above for off-rate analysis. Selected EGFR binding FN3 domains were tested at 1 μM concentration in 3-fold dilution series in the horizontal orientation. A buffer sample was also injected to monitor the baseline stability.

Test [4] addresses T1, human EGFR on cells. The test can be described thus: cell-based or functional assay.
The target of test [5] is T1, human EGFR on cells. The test can be described thus: cell-based or functional assay. This is another data set of the same source.
The target of test [6] is human c-Met on cells (human, UniProt P08581 25-1390). The test can be described thus: cell-based or functional assay.
Test [7] addresses T2, recombinant human extracellular domain …. The test can be described thus: SPR (ProteOn), protocol of Example 3, recombinant EGFR extracellular domain. The method, then:
All 6 analyte channels were used for the FN3 domains to maximize screening throughput. The dissociation phase was monitored for 10 minutes at a flow rate of 100 μL/min. The inter-spot binding signals were used as references to monitor non-specific binding between analytes and the immobilized IgG surface, and were subtracted from all binding responses. The processed binding data were locally fit to a 1:1 simple Langmuir binding model to extract the koff for each FN3 domain binding to captured EGFR-Fc.
Binding affinity of selected EGFR-binding FN3 domains to recombinant EGFR extracellular domain was further characterized by surface Plasmon resonance methods using a Proteon Instrument (BioRad). The assay set-up (chip preparation, EGFR-Fc capture) was similar to that described above for off-rate analysis. Selected EGFR binding FN3 domains were tested at 1 μM concentration in 3-fold dilution series in the horizontal orientation. A buffer sample was also injected to monitor the baseline stability. […] Two sets of reference data were subtracted from the response data: 1) the inter-spot signals to correct for the non-specific interactions between the EGFR-binding FN3 domain and the immobilized IgG surface; 2) the buffer channel signals to correct for baseline drifting due to the dissociation of captured EGFR-Fc surface over time. The processed binding data at all concentrations for each FN3 domain were globally fit to a 1:1 simple Langmuir binding model to extract estimates of the kinetic (kₘ, koff) and affinity (KD) constants.

Test [8] concerns the target T3, Recombinant human c-Met Fc chimera (human, UniProt P08581 16-932).
T3 construct: not shown: Fc part
The test can be described thus: SPR (ProteOn), protocol of Example 3, recombinant c-Met extracellular domain.

B1: P54AR4-81 (designed binder, not shown: small tags and cut ends)
chain: LPAPKNLVVSEVTEDSLRLSWDYDLGVYFDSFLIQYQESEKVGEAINLTVPGSERSYDLTGLKPGTEYTVSIYGVHNVYKDTNMRGLPLSAEFTT
As a reminder, the EC50 is the concentration giving half of the maximal effect. High values mean weaker potency, low ones greater potency. A word on the IC50: it is the point on the concentration scale where inhibition reaches its midpoint. Higher therefore signals weaker potency. In test [1], B1 had an EC50 of 84 nM. The molecule also gave an IC50 in test [2] of 121 nM.

B2: P53A1R5-17 (designed binder, not shown: small tags and cut ends)
chain: LPAPKNLVVSEVTEDSLRLSWADPHGFYDSFLIQYQESEKVGEAINLTVPGSERSYDLTGLKPGTEYTVSIYGVHNVYKDTNMRGLPLSAEFTT
For orientation: Kd means the concentration at which binding is half-saturated. In the case of B2, a half-maximal effect in test [1] (EC50) was put at 4 nM. In test [3], the Kd worked out at 1.89 nM. In addition, in test [4], the “NCI-H292 Growth IC50” value was 86 nM, the “NCI-H322 Growth IC50” value was found to be 65 nM and the “Phospho-EGFR IC50 (A431 cells)” value was more than 2500 nM. For the same molecule, the IC50 in test [2] amounted to 9.8 nM.

B3: P54AR4-17 (designed binder, not shown: small tags and cut ends)
chain: LPAPKNLVVSEVTEDSLRLSWTYDRDGYDSFLIQYQESEKVGEAINLTVPGSERSYDLTGLKPGTEYTVSIYGVHNVYKDTNMRGLPLSAEFTT
Molecule B3 displayed a concentration giving a half-maximal response (EC50) in test [1] of 16 nM. Further, in test [3], the Kd was 9.62 nM. Moreover, the “Phospho-EGFR IC50 (A431 cells)” value in test [4] turned out to be 184 nM. This molecule displayed an IC50 in test [2] of 21 nM.

B4: P54AR4-48 (designed binder, not shown: small tags and cut ends)
chain: LPAPKNLVVSEVTEDSLRLSWDDPRGFYESFLIQYQESEKVGEAINLTVPGSERSYDLTGLKPGTEYTVSIYGVHNVYKDTNMRGLPLSAEFTT
As for B4, in test [1], the EC50 is 12 nM. The Kd in test [3] came out at 7.78 nM. For the same molecule, the “Phospho-EGFR IC50 (A431 cells)” value in test [4] was 170 nM. The same molecule returned an IC50 in test [2] of 9.8 nM.

B5: P54AR4-73 (designed binder, not shown: small tags and cut ends)
chain: LPAPKNLVVSEVTEDSLRLSWTWPYADLDSFLIQYQESEKVGEAINLTVPGSERSYDLTGLKPGTEYTVSIYGVHNVYKDTNMRGLPLSAEFTT
In test [1], B5 yielded an EC50 of 9.4 nM. Further, the dissociation constant Kd in test [3] was found to be 0.197 nM. In addition, in test [4], the “NCI-H292 Growth IC50” value was 83 nM, the “NCI-H322 Growth IC50” value came out at 73 nM and the “Phospho-EGFR IC50 (A431 cells)” value is 141 nM. In test [2], this molecule showed a 50% inhibitory concentration (IC50) of 4.6 nM.

B6: P54AR4-74 (designed binder, not shown: small tags and cut ends)
chain: LPAPKNLVVSEVTEDSLRLSWGYNGDHFDSFLIQYQESEKVGEAINLTVPGSERSYDLTGLKPGTEYTVSIYGVHNVYKDTNMRGLPLSAEFTT
Turning to B6, the concentration giving a half-maximal response (EC50) in test [1] stood at 77 nM.

B7: ECB95 (designed binder)
chain: MLPAPKNLVVSEVTEDSARLSWDDPWAFYESFLIQYQESEKVGEAIVLTVPGSERSYDLTGLKPGTEYTVSIYGVHNVYKDTNIRGLPLSAIFTTAPAPAPAPAPLPAPKNLVVSRVTEDSARLSWTAPDAAFDSFWIRYFEFVGSGEAIVLTVPGSERSYDLTGLKPGTEYVVNILGVKGGSISPPLSAIFTT
notes: not shown: C-terminal poly-histidine tag
For B7, the “H292 pEGFR inhibition in H292 cells (IC50)” value (shortened to “H292 pEGFR inhibition”) in test [5] worked out at 13.6 nM. The “pMet inhibition in H441 cells (IC50)” value in test [6] came to 179 nM. Besides, the figures for the Kd in test [7] and in test [8] were 1.1 nM and 6.2 nM, respectively.

B8: ECB109 (designed binder)
chain: MLPAPKNLVVSEVTEDSARLSWDDPHAFYESFLIQYQESEKVGEAIVLTVPGSERSYDLTGLKPGTEYTVSIYGVHNVYKDTNIRGLPLSAIFTTAPAPAPAPAPLPAPKNLVVSRVTEDSARLSWTAPDAAFDSFWIRYFEFLGSGEAIVLTVPGSERSYDLTGLKPGTEYVVNILSVKGGSISPPLSAIFTT
notes: as for B7
In the case of B8, in test [5], the “H292 pEGFR inhibition” value stood at 432 nM. The “pMet inhibition in H441 cells (IC50)” value in test [6] was 26 nM. Also, the results for the Kd in test [7] and in test [8] were 17.3 nM and 2.1 nM, respectively.

B9: ECB97 (designed binder)
chain: MLPAPKNLVVSEVTEDSARLSWDDPWAFYESFLIQYQESEKVGEAIVLTVPGSERSYDLTGLKPGTEYTVSIYGVHNVYKDTNIRGLPLSAIFTTAPAPAPAPAPLPAPKNLVVSRVTEDSARLSWTAPDAAFDSFWIRYFEFLGSGEAIVLTVPGSERSYDLTGLKPGTEYVVNILSVKGGSISPPLSAIFTT
notes: as for B7
B9: the “H292 pEGFR inhibition” value in test [5] came to 16.6 nM. Further, the “pMet inhibition in H441 cells (IC50)” value in test [6] was 24.2 nM. The Kd in test [7] was 1.3 nM; in test [8], 1.7 nM.

B10: ECB108 (designed binder)
chain: MLPAPKNLVVSEVTEDSARLSWDDPHAFYESFLIQYQESEKVGEAIVLTVPGSERSYDLTGLKPGTEYTVSIYGVHNVYKDTNIRGLPLSAIFTTAPAPAPAPAPLPAPKNLVVSRVTEDSARLSWTAPDAAFDSFWIRYFEFVSKGDAIVLTVPGSERSYDLTGLKPGTEYVVNILGVKGGSISPPLSAIFTT
notes: as for B7
As to B10, the “H292 pEGFR inhibition” value in test [5] was 814 nM. Besides, the “pMet inhibition in H441 cells (IC50)” value in test [6] came out at 126 nM. The Kd in test [7] was determined as 15.3 nM; in test [8], 25.5 nM.

B11: ECB94 (designed binder)
chain: MLPAPKNLVVSEVTEDSARLSWDDPWAFYESFLIQYQESEKVGEAIVLTVPGSERSYDLTGLKPGTEYTVSIYGVHNVYKDTNIRGLPLSAIFTTAPAPAPAPAPLPAPKNLVVSRVTEDSARLSWTAPDAAFDSFWIRYFEFLGSGEAIVLTVPGSERSYDLTGLKPGTEYVVNILGVKGGKISPPLSAIFTT
notes: as for B7
For B11, the “H292 pEGFR inhibition” value in test [5] stood at 5.1 nM. In test [6], the “pMet inhibition in H441 cells (IC50)” value is 53.8 nM. Further, the Kd in test [7] was determined as 1 nM; in test [8], 4.3 nM.

B12: ECB96 (designed binder)
chain: MLPAPKNLVVSEVTEDSARLSWDDPWAFYESFLIQYQESEKVGEAIVLTVPGSERSYDLTGLKPGTEYTVSIYGVHNVYKDTNIRGLPLSAIFTTAPAPAPAPAPLPAPKNLVVSRVTEDSARLSWTAPDAAFDSFWIRYFEFVSKGDAIVLTVPGSERSYDLTGLKPGTEYVVNILGVKGGSISPPLSAIFTT
notes: as for B7
As to B12, the “H292 pEGFR inhibition” value in test [5] was 24.7 nM. In addition, the “pMet inhibition in H441 cells (IC50)” value in test [6] was 835 nM. Also, the Kd in test [7] was 1.6 nM; in test [8] it was 22.1 nM.

B13: ECB106 (designed binder)
chain: MLPAPKNLVVSEVTEDSARLSWDDPHAFYESFLIQYQESEKVGEAIVLTVPGSERSYDLTGLKPGTEYTVSIYGVHNVYKDTNIRGLPLSAIFTTAPAPAPAPAPLPAPKNLVVSRVTEDSARLSWTAPDAAFDSFWIRYFEFLGSGEAIVLTVPGSERSYDLTGLKPGTEYVVNILGVKGGKISPPLSAIFTT
notes: as for B7
For B13, in test [5], the “H292 pEGFR inhibition” value is 367 nM. Besides, the “pMet inhibition in H441 cells (IC50)” value in test [6] amounted to 53.3 nM. For the same molecule, the Kd worked out at 16.7 nM in test [7] and 5.1 nM in test [8].

B14: ECB107 (designed binder)
chain: MLPAPKNLVVSEVTEDSARLSWDDPHAFYESFLIQYQESEKVGEAIVLTVPGSERSYDLTGLKPGTEYTVSIYGVHNVYKDTNIRGLPLSAIFTTAPAPAPAPAPLPAPKNLVVSRVTEDSARLSWTAPDAAFDSFWIRYFEFVGSGEAIVLTVPGSERSYDLTGLKPGTEYVVNILGVKGGSISPPLSAIFTT
notes: as for B7
In the case of B14, the “H292 pEGFR inhibition” value in test [5] was 812 nM. In test [6], the “pMet inhibition in H441 cells (IC50)” value was 29.9 nM. Moreover, the dissociation constant (Kd) in test [7] was 16.9 nM; in test [8] it was 9 nM.
